Reference: publication PMC9418451

How the values were obtained:
SecYEG = SecYEG (UniProt P0AGA2); assay: high-speed atomic force microscopy
SecYEG G297LBT = SecYEG G297LBT (UniProt P0AGA2); assay: FRET or BRET

Substance	Kd (SecYEG)	tau off (time constant of the periods in which SecA was bound) (SecYEG)	tau on (time constant of the unbound periods until SecA rebinds) (SecYEG)	occupancy of SecYEG molecules by SecA (SecYEG G297LBT)
SecA (from UniProt P10408 1-901) (natural protein)	10 nM	1.1 s	1.7 s	
SecA(N95) K797C labeled with Atto488 (from UniProt P10408 1-901) (natural protein)				10%
